Several values for one entry are separate records, joined by “and”; a condition that tells them apart may be missing. Equal entries are not always repeated.
How the values were obtained:
[1] = BMP solubility screen: A320 turbidity of BMP-12 solutions; assay type: physicochemical; conditions: 50 mM Tris pH 8, 0.5 mg/mL BMP-12
Description: BMP Solubility Screen—A Tecan liquid-handling robot was used to mix a master plate of reagents, 800 μL×1.25 concentration (for each solution; see Tables 2 and 3), each in 50 mM Tris buffer at pH 8. An eight-channel pipettor was used to transfer 80 μL of material from the master plate into a half-area UV microplate, from which A320 was read from each sample to define a blank. A repeat-pipettor was used to add 20 μL of 2.5 mg/mL BMP-12 in 0.1% TFA to make a 0.5 mg/mL solution, which was then agitated at 14000 rpm. The UV absorption (A320) was read and the blank absorption subtracted to determine solubility. The procedure was repeated with a wider range of 2-methyl-2,4-pentanediol (MPD) concentrations and a finer set of salt concentrations (Table 4).

BMP-3 = target: T1, BMP-3 (Homo sapiens, UniProt P12645); experiment: Affinity column chromatography, capture and elution of BMP-3; assay type: binding
T1 construct: a propeptide fragment copurifies along with the mature protein; made in house; host or cells: CHO cells (conditioned medium)
T1 sequence (P12645 363-472): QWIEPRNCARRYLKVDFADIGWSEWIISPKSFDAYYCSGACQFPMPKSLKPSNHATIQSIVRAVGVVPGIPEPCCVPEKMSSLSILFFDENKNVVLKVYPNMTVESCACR
Description: BMP-12 was immobilized on NHS-activated Sepharose™ beads at a ratio of about 20 mg:4 mL and the resulting media combined with water or neutral saline buffer to prepare a column. CHO-conditioned media augmented with 1.2 M NaCl was loaded onto the column. In some cases, the media was preconcentrated with respect to BMP before loading. The column was washed with 15 CV (column volumes) of 1.2 M NaCl in 40 mM Na2HPO4 at pH 7.2, followed by 0.5 M arginine/0.5 M NaCl in 20 mM Tris at pH 7.5 (15 CV) and a low salt wash (50 mM ammonium acetate at pH 7, 15 CV). […] Finally, the column was eluted with 5CV of the acetic acid solution with 6M guanidine hydrochloride (GuHCl).
The eluate was analyzed using HPLC.
4 mL of the resulting resin (1.6×2.0 cm) was used to prepare a column. The column was loaded with BMP-3 and eluted as in Example 1.

BMP-3 and BMP-12 = experiment: HPLC columns of BMP affinity resins loaded with BMP-3 and BMP-12; assay type: binding; conditions: columns loaded with BMP-3 and BMP-12
From the text: These columns were used loaded with BMP-3 and BMP-12. […] In some cases, size exclusion or reverse phase chromatography techniques were employed to enhance purification.

B1: BMP-12: Bone Morphogenic Protein, member of the TGF-β superfamily; tested in solution and immobilized on Sepharose beads as affinity ligand (protein)
chain: TALAGTRTAQGSGGGAGRGHGRRGRSRCSRKPLHVDFKELGWDDWIIAPLDYEAYHCEGLCDFPLRSHLEPTNHAIIQTLLNSMAPDAAPASCCVPARLSPISILYIDAANNVVYKQYEDMVVEACGCR
[1]; NaCl 0.5 M, 2-methyl-2,4-pentanediol 5%
  A320 minus blank (turbidity): 2.414
[1]; NaCl 0.5 M, 2-methyl-2,4-pentanediol 10%
  A320 minus blank (turbidity): 2.258
[1]; NaCl 0.5 M, 2-methyl-2,4-pentanediol 15%
  A320 minus blank (turbidity): 1.420
[1]; NaCl 0.5 M, 2-methyl-2,4-pentanediol 20%
  A320 minus blank (turbidity): 0.165
[1]; NaCl 0.5 M, 2-methyl-2,4-pentanediol 25%
  A320 minus blank (turbidity): 0.020 and 0.038
[1]; NaCl 0.50 M, 2-methyl-2,4-pentanediol 30%
  A320 minus blank (turbidity): −0.091
[1]; NaCl 0.50 M, 2-methyl-2,4-pentanediol 35%
  A320 minus blank (turbidity): 0.026
[1]; NaCl 0.50 M, 2-methyl-2,4-pentanediol 40%
  A320 minus blank (turbidity): 0.024
[1]; NaCl 0.50 M, 2-methyl-2,4-pentanediol 45%
  A320 minus blank (turbidity): −0.008
[1]; NaCl 0.75 M, 1-propanol 0%
  A320 minus blank (turbidity): 1.911
[1]; NaCl 0.75 M, 1-propanol 2.5%
  A320 minus blank (turbidity): 2.023
[1]; NaCl 0.75 M, 1-propanol 5%
  A320 minus blank (turbidity): 1.541
[1]; NaCl 0.75 M, 1-propanol 10%
  A320 minus blank (turbidity): 1.032
[1]; NaCl 0.75 M, 1-propanol 15%
  A320 minus blank (turbidity): 0.094
[1]; NaCl 0.75 M, 1-propanol 25%
  A320 minus blank (turbidity): −0.003
[1]; NaCl 0.75 M, 2-methyl-2,4-pentanediol 2.5%
  A320 minus blank (turbidity): 1.985
[1]; NaCl 0.75 M, 2-methyl-2,4-pentanediol 5%
  A320 minus blank (turbidity): 2.076
[1]; NaCl 0.75 M, 2-methyl-2,4-pentanediol 10%
  A320 minus blank (turbidity): 2.211
[1]; NaCl 0.75 M, 2-methyl-2,4-pentanediol 15%
  A320 minus blank (turbidity): 0.818
[1]; NaCl 0.75 M, 2-methyl-2,4-pentanediol 20%
  A320 minus blank (turbidity): 0.099
[1]; NaCl 0.75 M, 2-methyl-2,4-pentanediol 25%
  A320 minus blank (turbidity): 0.001
[1]; NaCl 1 M, 1-propanol 0%
  A320 minus blank (turbidity): 1.988
[1]; NaCl 1 M, 1-propanol 2.5%
  A320 minus blank (turbidity): 1.601
[1]; NaCl 1 M, 1-propanol 5%
  A320 minus blank (turbidity): 1.817
[1]; NaCl 1 M, 1-propanol 10%
  A320 minus blank (turbidity): 1.000
[1]; NaCl 1 M, 1-propanol 15%
  A320 minus blank (turbidity): 0.040
[1]; NaCl 1 M, 1-propanol 25%
  A320 minus blank (turbidity): −0.010
[1]; NaCl 1 M, 2-methyl-2,4-pentanediol 2.5%
  A320 minus blank (turbidity): 2.133
[1]; NaCl 1 M, 2-methyl-2,4-pentanediol 5%
  A320 minus blank (turbidity): 1.903
[1]; NaCl 1 M, 2-methyl-2,4-pentanediol 10%
  A320 minus blank (turbidity): 2.110
[1]; NaCl 1 M, 2-methyl-2,4-pentanediol 15%
  A320 minus blank (turbidity): 0.400
[1]; NaCl 1 M, 2-methyl-2,4-pentanediol 20%
  A320 minus blank (turbidity): 0.089
[1]; NaCl 1 M, 2-methyl-2,4-pentanediol 25%
  A320 minus blank (turbidity): −0.015
[1]; NaCl 1.25 M, 1-propanol 0%
  A320 minus blank (turbidity): 1.702
[1]; NaCl 1.25 M, 1-propanol 2.5%
  A320 minus blank (turbidity): 1.376
[1]; NaCl 1.25 M, 1-propanol 5%
  A320 minus blank (turbidity): 1.643
[1]; NaCl 1.25 M, 1-propanol 10%
  A320 minus blank (turbidity): 1.018
[1]; NaCl 1.25 M, 1-propanol 15%
  A320 minus blank (turbidity): 0.033
[1]; NaCl 1.25 M, 1-propanol 25%
  A320 minus blank (turbidity): 0.022
[1]; NaCl 1.25 M, 2-methyl-2,4-pentanediol 2.5%
  A320 minus blank (turbidity): 1.819
[1]; NaCl 1.25 M, 2-methyl-2,4-pentanediol 5%
  A320 minus blank (turbidity): 1.643
[1]; NaCl 1.25 M, 2-methyl-2,4-pentanediol 10%
  A320 minus blank (turbidity): 1.688
[1]; NaCl 1.25 M, 2-methyl-2,4-pentanediol 15%
  A320 minus blank (turbidity): 0.257
[1]; NaCl 1.25 M, 2-methyl-2,4-pentanediol 20%
  A320 minus blank (turbidity): 0.040
[1]; NaCl 1.25 M, 2-methyl-2,4-pentanediol 25%
  A320 minus blank (turbidity): −0.011
[1]; NaCl 1.5 M, 1-propanol 0%
  A320 minus blank (turbidity): 1.981
[1]; NaCl 1.5 M, 1-propanol 2.5%
  A320 minus blank (turbidity): 1.358
[1]; NaCl 1.5 M, 1-propanol 5%
  A320 minus blank (turbidity): 1.598
[1]; NaCl 1.5 M, 1-propanol 10%
  A320 minus blank (turbidity): 0.973
[1]; NaCl 1.5 M, 1-propanol 15%
  A320 minus blank (turbidity): 0.036
[1]; NaCl 1.5 M, 1-propanol 25%
  A320 minus blank (turbidity): 0.478
[1]; NaCl 1.5 M, 2-methyl-2,4-pentanediol 2.5%
  A320 minus blank (turbidity): 1.767
[1]; NaCl 1.5 M, 2-methyl-2,4-pentanediol 5%
  A320 minus blank (turbidity): 1.521
[1]; NaCl 1.5 M, 2-methyl-2,4-pentanediol 10%
  A320 minus blank (turbidity): 1.798
[1]; NaCl 1.5 M, 2-methyl-2,4-pentanediol 15%
  A320 minus blank (turbidity): 0.227
[1]; NaCl 1.5 M, 2-methyl-2,4-pentanediol 20%
  A320 minus blank (turbidity): 0.045
[1]; NaCl 1.5 M, 2-methyl-2,4-pentanediol 25%
  A320 minus blank (turbidity): 0.003
BMP-3; CHO-conditioned media with 1.2 M NaCl (high salt) load
  capture of BMP-3 by column with immobilized ligand: effectively captured
BMP-3; washes, then gradient to 50 mM acetic acid pH 3, then 6M GuHCl
  elution of BMP-3 from column with immobilized ligand: eluted with acetic acid
BMP-3 and BMP-12
  effectiveness as affinity ligand for reverse phase HPLC: equally effective

Source: patent US7754689B2, “Finger-1 peptide analogs of the TGF-β superfamily” (Wyeth LLC, priority 2006, dated 2010)
